Data on 1 protein can be found in US20150368309A1 (SHIRE HUMAN GENETIC THERAPIES, published 2015).

The series deals with the molecule itself. In words: DSS crosslinking, anti-Flt-1 Western blot. How it is done: PLGF and sFlt-1 (Human sFlt-1:Abcam, Cat#54346) were incubated on ice for 2 hrs in 100 μL crosslinking buffer. After the incubation, the crosslinking reagent, Disuccinimidyl suberate (DSS), was added, 1 μL of 25 mM stock DSS (in DMSO) to a final concentration of 250 μM. After brief vortexing, the mixture was incubated on ice for additional 15 min.
To analyze the crosslinked complexes using Western blot, the pellets were solubilized with 30 μL of 1×LDS buffer containing 10 mM DTT. After heating the dissolved pellets to 37° C. for 15 min, 10 μL of the sample was loaded onto 8 to 16% Tris-glycince SDS-PAGE gel. The gels were transferred to PVDF membranes by standard method for anti-PLGF or anti-Flt-1 Western blot analysis.
WT PLGF forms dimers in its native state, and the binding models of WT PLGF with hsFlt-1 were established. A PLGF C59A monomer binding with Flt-1 receptor monomer is also found. The binding complexes, WT PLGF-hsFlt-1 and PLGF C59A-hsFlt-1, were crosslinked by DSS through amine groups on the surface of PLGF or hsFlt-1 molecules. After separating on SDS-PAGE, PLGF-containing or Flt-1 containing binding complexes were detected on Western blot by anti-PLGF or anti-Flt-1 antibodies.
On the technique in general: A western blot detects proteins with antibodies after separation by electrophoresis.

B1: Human sFlt-1 (Abcam, Cat#54346), without Fc fusion (receptor, UniProt P17948-2 27-687, looked up)
chain: SKLKDPELSLKGTQHIMQAGQTLHLQCRGEAAHKWSLPEMVSKESERLSITKSACGRNGKQFCSTLTLNTAQANHTGFYSCKYLAVPTSKKKETESAIYIFISDTGRPFVEMYSEIPEIIHMTEGRELVIPCRVTSPNITVTLKKFPLDTLIPDGKRIIWDSRKGFIISNATYKEIGLLTCEATVNGHLYKTNYLTHRQTNTIIDVQISTPRPVKLLRGHTLVLNCTATTPLNTRVQMTWSYPDEKNKRASVRRRIDQSNSHANIFYSVLTIDKMQNKDKGLYTCRVRSGPSFKSVNTSVHIYDKAFITVKHRKQQVLETVAGKRSYRLSMKVKAFPSPEVVWLKDGLPATEKSARYLTRGYSLIIKDVTEEDAGNYTILLSIKQSNVFKNLTATLIVNVKPQIYEKAVSSFPDPALYPLGSRQILTCTAYGIPQPTIKWFWHPCNHNHSEARCDFCSNNEESFILDADSNMGNRIESITQRMAIIEGKNKMASTLVVADSRISGIYICIASNKVGTVGRNISFYITDVPNGFHVNLEKMPTEGEDLKLSCTVNKFLYRDVTWILLRTVNNRTMHYSISKQKMAITKEHSITLNLTIMNVSLQDSGTYACRARNVYTGEEILQKKEITIRGEHCNKKAVFSRISKFKSTRNDCTTQSNVKH
notes: also called hsFlt-1; commercial sFlt-1 that doesn't contain Fc fusion
As for B1, the binding result is recorded as “no binding”.
